{
  "source": "the supplement of paper PMC12042874",
  "note": "± gives the uncertainty stated by the source.",
  "data": [
    {"experiment": "amyloid nucleation score (Sup35N fusion, yeast selection) (log enrichment); library NNK3; higher = more nucleation; inactive = no reads after selection", "outline": "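Nucleation score: DiMSum log enrichment of output over input reads, centred on the mode score of non-aggregating sequences. Only sequences with at least 100 input reads were kept. Reads came from Illumina sequencing of plasmid inserts before and after 7 days of growth at 30°C without adenine and uracil, in psi-negative yeast expressing Sup35N fused to peptides of 20 random codons after 24 hours of induction with 100 μM copper sulfate.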", "values": [
      {"substance": "YPCEVLGCDAN", "amyloid nucleation score": "inactive"},
      {"substance": "KNEVIYHWLRRRVNSRRTFR", "amyloid nucleation score": "inactive"},
      {"substance": "HDDSTSNNSPVSRKPLSPWS", "amyloid nucleation score": "inactive"},
      {"substance": "RTHRRKSDTVMLES", "amyloid nucleation score": "inactive"},
      {"substance": "TRWRSLSEGPSVGLEITPRF", "amyloid nucleation score": "inactive"},
      {"substance": "LWSLYFDFVQGFGMYLSQSL", "amyloid nucleation score": "inactive"},
      {"substance": "INNLFTRVSSIRFCVRS", "amyloid nucleation score": "inactive"},
      {"substance": "DARVVGVLDVRDLAKYFWMA", "amyloid nucleation score": "inactive"},
      {"substance": "VMIKSC", "amyloid nucleation score": "inactive"},
      {"substance": "NLCRVMMFSFFTLLV", "amyloid nucleation score": "1.44 ± 0.1"},
      {"substance": "MFNILADKGSRARSERASL", "amyloid nucleation score": "inactive"},
      {"substance": "YNSSTTVIDFTF", "amyloid nucleation score": "inactive"},
      {"substance": "ERVNVVR", "amyloid nucleation score": "inactive"},
      {"substance": "KDKQVV", "amyloid nucleation score": "inactive"},
      {"substance": "NFFITTDPPGFR", "amyloid nucleation score": "inactive"},
      {"substance": "FGKGVCRLD", "amyloid nucleation score": "inactive"},
      {"substance": "KEWVMRLSVGYIDSFHRFAW", "amyloid nucleation score": "inactive"},
      {"substance": "GCERMFIMVYSL", "amyloid nucleation score": "inactive"},
      {"substance": "CISRKFFSVRSVYLWYVSAT", "amyloid nucleation score": "inactive"},
      {"substance": "PFWSGMIPIIEDPISGAL", "amyloid nucleation score": "inactive"},
      {"substance": "DRNRCIVYTHGEISRLQ", "amyloid nucleation score": "inactive"},
      {"substance": "CSSRMVFLRHLAGFLWGRPP", "amyloid nucleation score": "0.038 ± 0.85"},
      {"substance": "YIEAIYRDVPPECGTLLRTL", "amyloid nucleation score": "inactive"},
      {"substance": "LVINL", "amyloid nucleation score": "inactive"},
      {"substance": "RFGALVTLVFVCYHWNRPTA", "amyloid nucleation score": "0.753 ± 0.16"},
      {"substance": "NVRGEENVKNILSGVL", "amyloid nucleation score": "inactive"},
      {"substance": "TIWSCMCVMWITRPSNTRRP", "amyloid nucleation score": "inactive"},
      {"substance": "LVCSLLQASNWCVISSS", "amyloid nucleation score": "0.753 ± 0.11"},
      {"substance": "WHTSSQVSEGLEHAYVCKFE", "amyloid nucleation score": "inactive"},
      {"substance": "MLIQPWSSSRNYVPPAEYW", "amyloid nucleation score": "inactive"},
      {"substance": "FFVQSGIIEELYTW", "amyloid nucleation score": "0.173 ± 0.31"},
      {"substance": "SVFDMDSMGTS", "amyloid nucleation score": "inactive"},
      {"substance": "LYINYLCWMNKYTACLPLHL", "amyloid nucleation score": "inactive"},
      {"substance": "LVICGYDIRN", "amyloid nucleation score": "inactive"},
      {"substance": "CMAMSFPWWWYTGIITYSL", "amyloid nucleation score": "inactive"},
      {"substance": "SLCVVGP", "amyloid nucleation score": "-0.107 ± 0.6"},
      {"substance": "FWFHLADMVECKCIDVLYYL", "amyloid nucleation score": "inactive"},
      {"substance": "FIVDVYICAVSLLVGFLDAE", "amyloid nucleation score": "inactive"},
      {"substance": "LVYPQIYVQV", "amyloid nucleation score": "inactive"},
      {"substance": "MFLSALDNGLLVNGYVICVC", "amyloid nucleation score": "inactive"},
      {"substance": "IAHWAWGMELIIYQIPNHFR", "amyloid nucleation score": "0.407 ± 0.25"},
      {"substance": "YYFRPVSPRDLSQVDCRTDL", "amyloid nucleation score": "inactive"},
      {"substance": "CPVTIYSVYNTASVKALFLR", "amyloid nucleation score": "inactive"},
      {"substance": "LEYVCMRH", "amyloid nucleation score": "inactive"},
      {"substance": "TLSLVQQSR", "amyloid nucleation score": "inactive"},
      {"substance": "NTSAPSNATAAFKAITN", "amyloid nucleation score": "inactive"},
      {"substance": "HFSSYDTDRINAVPKIWTIR", "amyloid nucleation score": "inactive"},
      {"substance": "DVAWHRSACEYLFM", "amyloid nucleation score": "inactive"},
      {"substance": "TMSRRAARMQCAILVPSRLL", "amyloid nucleation score": "inactive"},
      {"substance": "VWNMSASIKLQRMSAF", "amyloid nucleation score": "inactive"},
      {"substance": "RDRLKVLLLIFHSRDDTRTK", "amyloid nucleation score": "inactive"},
      {"substance": "VNPIERWA", "amyloid nucleation score": "inactive"},
      {"substance": "CFNNKVVNTWRICMVGLSLS", "amyloid nucleation score": "inactive"},
      {"substance": "PFNRVVVHSDAARGCRPCRP", "amyloid nucleation score": "inactive"},
      {"substance": "CCTSA", "amyloid nucleation score": "inactive"},
      {"substance": "EPCSLPTSGPMGMVGNIKSG", "amyloid nucleation score": "inactive"},
      {"substance": "RWLLMYLLLRSTATN", "amyloid nucleation score": "inactive"},
      {"substance": "LIEWYFDN", "amyloid nucleation score": "inactive"},
      {"substance": "CIILRVCTHLVKSSARLPAP", "amyloid nucleation score": "inactive"},
      {"substance": "LQQCFYMVNFFMLSSLAVLL", "amyloid nucleation score": "inactive"},
      {"substance": "YMKDALNLRPLRSSTALFLS", "amyloid nucleation score": "inactive"},
      {"substance": "GLDLSSYPEL", "amyloid nucleation score": "inactive"},
      {"substance": "RDRLVWDRCRTVAPSTGVVR", "amyloid nucleation score": "inactive"},
      {"substance": "DSRKRKVRF", "amyloid nucleation score": "inactive"},
      {"substance": "ITGVFCTSHVRFNINFKLWE", "amyloid nucleation score": "1.97 ± 0.063"},
      {"substance": "VMYGEVSDTYMAREICKFSA", "amyloid nucleation score": "inactive"},
      {"substance": "FAGEATVDTWTIFMCVIRGW", "amyloid nucleation score": "-0.225 ± 0.53"},
      {"substance": "SIILGCCLWLHLMH", "amyloid nucleation score": "2.08 ± 0.059"},
      {"substance": "NSLDSRMYGI", "amyloid nucleation score": "inactive"},
      {"substance": "EARLTSLCKKQYEF", "amyloid nucleation score": "inactive"},
      {"substance": "GNYVRIETS", "amyloid nucleation score": "inactive"},
      {"substance": "AAKYFCNCRGYFAPRLKC", "amyloid nucleation score": "inactive"},
      {"substance": "VFGGNVIKSYVKITFQPGFD", "amyloid nucleation score": "2.22 ± 0.061"},
      {"substance": "CQISWL", "amyloid nucleation score": "inactive"},
      {"substance": "RLNTMCYSSALASS", "amyloid nucleation score": "inactive"},
      {"substance": "PGVTSMSLSYPGFWVSPS", "amyloid nucleation score": "inactive"},
      {"substance": "TWELHV", "amyloid nucleation score": "-0.428 ± 1"},
      {"substance": "SLNWVGVCNMKSPVNSTQSI", "amyloid nucleation score": "0.329 ± 0.67"},
      {"substance": "GEYFCRNLNHID", "amyloid nucleation score": "inactive"},
      {"substance": "KDVPPFFSSSFNWAGLRKDK", "amyloid nucleation score": "0.436 ± 0.41"},
      {"substance": "NVFLSRFMVMRKMVWFTEF", "amyloid nucleation score": "inactive"},
      {"substance": "FDFWEDRVCPIYNCLGCGKL", "amyloid nucleation score": "inactive"},
      {"substance": "HNILFSDLGFYRSYYNADSM", "amyloid nucleation score": "inactive"},
      {"substance": "LCVSCIDSFLGEMVFGLEVI", "amyloid nucleation score": "inactive"},
      {"substance": "ITDLYF", "amyloid nucleation score": "inactive"},
      {"substance": "LMYVS", "amyloid nucleation score": "inactive"},
      {"substance": "LADLNTTNIVIGQCCFFYRL", "amyloid nucleation score": "2.55 ± 0.076"},
      {"substance": "MWVPTRHKGLYFVNVVFACH", "amyloid nucleation score": "inactive"},
      {"substance": "KLSSKY", "amyloid nucleation score": "inactive"},
      {"substance": "TIQCMCFCSNRVLTIIVQLS", "amyloid nucleation score": "-0.61 ± 0.75"},
      {"substance": "ECMRNTPLTQSTATTMTTGF", "amyloid nucleation score": "inactive"},
      {"substance": "KAVLWFGDIWRQVG", "amyloid nucleation score": "inactive"},
      {"substance": "GAYSDMTNKIWVPDNLLLL", "amyloid nucleation score": "inactive"},
      {"substance": "DDSPFLGRFK", "amyloid nucleation score": "inactive"},
      {"substance": "NYDKCSDPRRRRRLFFHLYD", "amyloid nucleation score": "inactive"},
      {"substance": "TYHWLNRGYRMGSLENRLLK", "amyloid nucleation score": "inactive"},
      {"substance": "LLIRTSLVGEIPLSVSVGCL", "amyloid nucleation score": "inactive"},
      {"substance": "IFGFDYIAPFFCVTFGIRRV", "amyloid nucleation score": "inactive"},
      {"substance": "CFGISLTESMSTSQNVVLDH", "amyloid nucleation score": "inactive"},
      {"substance": "KAFCFF", "amyloid nucleation score": "1.24 ± 0.12"},
      {"substance": "RSLTLW", "amyloid nucleation score": "inactive"},
      {"substance": "DVGSR", "amyloid nucleation score": "inactive"},
      {"substance": "FLSDSNT", "amyloid nucleation score": "inactive"},
      {"substance": "ILRNRNDIQNAYCRNKY", "amyloid nucleation score": "inactive"},
      {"substance": "LAGRHVVMWLQLMAHDIENM", "amyloid nucleation score": "inactive"},
      {"substance": "LFVLELVRIWVTYNWCSVSF", "amyloid nucleation score": "inactive"},
      {"substance": "RPFSPVVLMVYGKKRRTWTR", "amyloid nucleation score": "inactive"},
      {"substance": "HTRWLGYNSHRGYLFLMSKF", "amyloid nucleation score": "0.104 ± 0.9"},
      {"substance": "QYFFNRKL", "amyloid nucleation score": "inactive"},
      {"substance": "GEDIL", "amyloid nucleation score": "inactive"},
      {"substance": "LMYLTCPPRGDSTFPKVIRQ", "amyloid nucleation score": "inactive"},
      {"substance": "WNVELSNLVEIMGRCACYSS", "amyloid nucleation score": "0.406 ± 0.35"},
      {"substance": "LSWRRCA", "amyloid nucleation score": "inactive"},
      {"substance": "LPTSFTSFNLKSLASMT", "amyloid nucleation score": "inactive"},
      {"substance": "NDWREANLF", "amyloid nucleation score": "inactive"},
      {"substance": "YLVYRNVTMVCPDRQH", "amyloid nucleation score": "0.375 ± 0.27"},
      {"substance": "ETAYSASVRDT", "amyloid nucleation score": "inactive"},
      {"substance": "TTTFKLGISKSLDVSTRLRG", "amyloid nucleation score": "0.31 ± 0.14"},
      {"substance": "SAIPKGKATITFPPLKSFVR", "amyloid nucleation score": "1.02 ± 0.13"},
      {"substance": "SSTHIWGVQALGS", "amyloid nucleation score": "inactive"}
    ]}
  ]
}
